Assay results reported in patent US20180177763A1, “SMALL MOLECULES THAT MIMIC OR ANTAGONIZE ACTIONS OF GRANULOCYTE COLONY-STIMULATING-FACTOR (G-CSF)” (published 2018).

Tests used:
[1] = target: T1, Granulocyte-colony stimulating factor receptor (G-CSF-R) (human); experiment: saturation binding of radioligand to THP-1 monocytic cells, nonlinear regression
T1 chain: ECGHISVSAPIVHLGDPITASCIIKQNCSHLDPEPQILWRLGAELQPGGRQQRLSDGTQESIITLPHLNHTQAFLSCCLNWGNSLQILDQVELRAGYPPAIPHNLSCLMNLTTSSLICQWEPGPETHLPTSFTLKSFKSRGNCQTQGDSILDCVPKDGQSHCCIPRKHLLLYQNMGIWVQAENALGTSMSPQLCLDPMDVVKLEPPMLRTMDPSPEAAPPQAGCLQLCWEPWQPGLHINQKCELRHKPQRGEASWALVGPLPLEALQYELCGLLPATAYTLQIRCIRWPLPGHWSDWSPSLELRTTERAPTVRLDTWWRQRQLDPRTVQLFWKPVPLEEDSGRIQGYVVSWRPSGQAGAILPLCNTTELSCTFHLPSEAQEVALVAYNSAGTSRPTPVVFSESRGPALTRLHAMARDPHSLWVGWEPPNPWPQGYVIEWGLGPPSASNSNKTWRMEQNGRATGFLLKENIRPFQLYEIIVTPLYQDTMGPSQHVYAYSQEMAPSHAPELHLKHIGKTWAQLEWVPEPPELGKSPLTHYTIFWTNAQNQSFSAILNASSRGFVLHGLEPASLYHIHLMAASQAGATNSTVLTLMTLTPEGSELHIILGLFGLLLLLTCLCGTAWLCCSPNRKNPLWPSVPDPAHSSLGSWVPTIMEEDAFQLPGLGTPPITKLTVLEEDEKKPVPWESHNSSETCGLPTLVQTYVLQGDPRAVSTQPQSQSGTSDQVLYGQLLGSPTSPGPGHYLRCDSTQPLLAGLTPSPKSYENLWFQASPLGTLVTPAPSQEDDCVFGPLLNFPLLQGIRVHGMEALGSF
Method: (§1) Binding of [¹²⁵I]-G-CSF was measured using previously described method (Kondo, S., et al. Eur. J. Haematol. 1991, 46, 223-30) with some modifications (Pennington, A., et al. Alzheimer's Disease and Parkinsonism 2013, 3, 121). [¹²⁵I]-G-CSF (specific activity 46.55 TBq/mmol) was purchased from Perkin Elmer (Waltham, Mass.). Cells were incubated in 180 μL of binding medium containing 0.2% BSA, 5 mM MgSO₄, and 50 mM Hepes, pH 7.2 at a concentration of 1.5×10⁷ cells/mL and the appropriate concentration of [¹²⁵I]-G-CSF. Incubations were carried out at room temperature with periodic shaking to ensure continuous mixing of cells and radioactive ligand. […] Nonspecific binding of [¹²⁵I]-G-CSF was measured by incubations in the presence of a 100-fold molar excess of unlabeled G-CSF. […] Bound and free ligand activities were counted after cutting tubes in two pieces and placing the tips and tops, respectively into separate scintillation vials. […] The specific binding was determined from the amount of bound [¹²⁵I]-G-CSF blocked by competition with excess unlabeled G-CSF. The parameters of saturation binding experiments including dissociation constant (Kd), maximum binding capacity (Bmax) and binding cooperativity (h) were calculated with GraphPad Prism 5 software (La Jolla, Calif.) by using nonlinear regression analysis. […]

[2] = target: T1, Granulocyte-colony stimulating factor …; experiment: saturation binding of radioligand to SH-SY5Y neuronal cells, nonlinear regression
Method: as §1

[3] = target: T1, Granulocyte-colony stimulating factor …; experiment: saturation binding of radioligand to THP-1 monocytic cells (value in the text differs from Table 2)
Method: as §1

[4] = target: T1, Granulocyte-colony stimulating factor …; experiment: saturation binding of radioligand to SH-SY5Y neuronal cells (value in the text differs from Table 2)
Method: as §1

Kd [1]: 0.0538 nM
Kd [2]: 0.608 nM
Kd [3]: 0.0575 nM
Kd [4]: 0.607 nM
B1: [125I]-G-CSF (ligand)
chain: TPLGPASSLPQSFLLKCLEQVRKIQGDGAALQEKLVSECATYKLCHPEELVLLGHSLGIPWAPLSSCPSQALQLAGCLSQLHSGLFLYQGLLQALEGISPELGPTLDTLQLDVADFATTIWQQMEELGMAPALQPTQGAMPAFASAFQRRAGGVLVASHLQSFLEVSYRVLRHLAQP
modifications: 125I radiolabel (specific activity 46.55 TBq/mmol); labelled residue not stated
